# Data reported in paper PMC10107544, “Selecting Better Biocatalysts by Complementing Recoded Bacteria” (Angewandte Chemie (International Ed. in English), 2022).
# B1: SmLcar (Sinorhizobium meliloti) (protein)
# chain: MAAPGENRRVNADRLWDSLMEMAKIGPGVAGGNNRQTLTDADGEGRRLFQSWCEEAGLSMGVDKMGTMFLTRPGTDPDALPVHIGSHLDTQPTGGKFDGVLGVLSGLEAVRTMNDLGIKTKHPIVVTNWTNEEGARFAPAMLASGVFAGVHTLEYAYARKDPEGKSFGDELKRIGWLGDEEVGARKMHAYFEYHIEQGPILEAENKQIGVVTHCQGLWWLEFTLTGREAHTGSTPMDMRVNAGLAMARILEMVQTVAMENQPGAVGGVGQMFFSPNSRNVLPGKVVFTVDIRSPDQAKLDGMRARIEAEAPKICERLGVGCSIEAVGHFDPVTFDPKLVETVRGAAEKLGYSHMNLVSGAGHDACWAAKVAPTTMIMCPCVGGLSHNEAEDISREWAAAGADVLFHAVLETAEIVE
# notes: recombinant, produced from plasmid and purified; bivalent metal-dependent
# B2: SmLcar (Sinorhizobium meliloti; L217G) (protein)
# chain: MAAPGENRRVNADRLWDSLMEMAKIGPGVAGGNNRQTLTDADGEGRRLFQSWCEEAGLSMGVDKMGTMFLTRPGTDPDALPVHIGSHLDTQPTGGKFDGVLGVLSGLEAVRTMNDLGIKTKHPIVVTNWTNEEGARFAPAMLASGVFAGVHTLEYAYARKDPEGKSFGDELKRIGWLGDEEVGARKMHAYFEYHIEQGPILEAENKQIGVVTHCQGGWWLEFTLTGREAHTGSTPMDMRVNAGLAMARILEMVQTVAMENQPGAVGGVGQMFFSPNSRNVLPGKVVFTVDIRSPDQAKLDGMRARIEAEAPKICERLGVGCSIEAVGHFDPVTFDPKLVETVRGAAEKLGYSHMNLVSGAGHDACWAAKVAPTTMIMCPCVGGLSHNEAEDISREWAAAGADVLFHAVLETAEIVE
# notes: as for B1
# B3: SmLcar (Sinorhizobium meliloti; F329Y/L217G) (protein)
# chain: MAAPGENRRVNADRLWDSLMEMAKIGPGVAGGNNRQTLTDADGEGRRLFQSWCEEAGLSMGVDKMGTMFLTRPGTDPDALPVHIGSHLDTQPTGGKFDGVLGVLSGLEAVRTMNDLGIKTKHPIVVTNWTNEEGARFAPAMLASGVFAGVHTLEYAYARKDPEGKSFGDELKRIGWLGDEEVGARKMHAYFEYHIEQGPILEAENKQIGVVTHCQGGWWLEFTLTGREAHTGSTPMDMRVNAGLAMARILEMVQTVAMENQPGAVGGVGQMFFSPNSRNVLPGKVVFTVDIRSPDQAKLDGMRARIEAEAPKICERLGVGCSIEAVGHYDPVTFDPKLVETVRGAAEKLGYSHMNLVSGAGHDACWAAKVAPTTMIMCPCVGGLSHNEAEDISREWAAAGADVLFHAVLETAEIVE
# notes: as for B1
# B4: SmLcar (Sinorhizobium meliloti; F329C/L217G) (protein)
# chain: MAAPGENRRVNADRLWDSLMEMAKIGPGVAGGNNRQTLTDADGEGRRLFQSWCEEAGLSMGVDKMGTMFLTRPGTDPDALPVHIGSHLDTQPTGGKFDGVLGVLSGLEAVRTMNDLGIKTKHPIVVTNWTNEEGARFAPAMLASGVFAGVHTLEYAYARKDPEGKSFGDELKRIGWLGDEEVGARKMHAYFEYHIEQGPILEAENKQIGVVTHCQGGWWLEFTLTGREAHTGSTPMDMRVNAGLAMARILEMVQTVAMENQPGAVGGVGQMFFSPNSRNVLPGKVVFTVDIRSPDQAKLDGMRARIEAEAPKICERLGVGCSIEAVGHCDPVTFDPKLVETVRGAAEKLGYSHMNLVSGAGHDACWAAKVAPTTMIMCPCVGGLSHNEAEDISREWAAAGADVLFHAVLETAEIVE
# notes: as for B1
# Columns and labels:
# Assay type in all cases: biochemical, Sinorhizobium meliloti
# Details in all cases: free enzyme; kinetic pH and metal not given
# [1] = substrate: NC(=O)N[C@@H](Cc1ccc(O)c(I)c1)C(=O)O; experiment: saturation kinetics, Michaelis-Menten fit
# Text: (§1) saturation kinetics, Michaelis-Menten fit on […]
# [2] = substrate: NC(=O)N[C@@H](Cc1ccc(O)c([N+](=O)[O-])c1)C(=O)O; experiment: HPLC saturation kinetics, Michaelis-Menten fit
# Text: HPLC saturation kinetics, Michaelis-Menten fit on […]
# [3] = substrate: NC(=O)N[C@@H](Cc1ccc(O)c([N+](=O)[O-])c1)C(=O)O; experiment: saturation kinetics, Michaelis-Menten fit
# Text: as §1
Protein,Km [1],kcat [1] [s⁻¹],kcat/Km [1] [M⁻¹ s⁻¹],Km [2],kcat [2] [s⁻¹],kcat/Km [2] [M⁻¹ s⁻¹],Km [3],kcat [3] [s⁻¹],kcat/Km [3] [M⁻¹ s⁻¹]
B1,13.8 (7.91) mM,6.92e-05 ± 2.09e-05,0.005 ± 0.00315,2.98 (0.87) mM,0.000105 ± 1.01e-05,0.0354 ± 0.00977,,,
B2,2.58 (0.46) mM,0.232,89.9,,,,8.91 (2.81) mM,0.0929 ± 0.0136,10.4
B3,1.45 (0.16) mM,0.231,159,,,,5.30 (0.88) mM,0.78,148
B4,5.71 (1.14) mM,4.84,849,,,,2.92 (0.95) mM,0.32,108
